The record followed here is paper PMC10615991.

This experiment deals with Recombinant angiotensin-converting enzyme-2 (ACE2) (UniProt Q9BYF1). Description: LSPR (localized surface plasmon resonance).
Recombinant angiotensin-converting enzyme-2 (ACE2), sequence (Q9BYF1 18-805): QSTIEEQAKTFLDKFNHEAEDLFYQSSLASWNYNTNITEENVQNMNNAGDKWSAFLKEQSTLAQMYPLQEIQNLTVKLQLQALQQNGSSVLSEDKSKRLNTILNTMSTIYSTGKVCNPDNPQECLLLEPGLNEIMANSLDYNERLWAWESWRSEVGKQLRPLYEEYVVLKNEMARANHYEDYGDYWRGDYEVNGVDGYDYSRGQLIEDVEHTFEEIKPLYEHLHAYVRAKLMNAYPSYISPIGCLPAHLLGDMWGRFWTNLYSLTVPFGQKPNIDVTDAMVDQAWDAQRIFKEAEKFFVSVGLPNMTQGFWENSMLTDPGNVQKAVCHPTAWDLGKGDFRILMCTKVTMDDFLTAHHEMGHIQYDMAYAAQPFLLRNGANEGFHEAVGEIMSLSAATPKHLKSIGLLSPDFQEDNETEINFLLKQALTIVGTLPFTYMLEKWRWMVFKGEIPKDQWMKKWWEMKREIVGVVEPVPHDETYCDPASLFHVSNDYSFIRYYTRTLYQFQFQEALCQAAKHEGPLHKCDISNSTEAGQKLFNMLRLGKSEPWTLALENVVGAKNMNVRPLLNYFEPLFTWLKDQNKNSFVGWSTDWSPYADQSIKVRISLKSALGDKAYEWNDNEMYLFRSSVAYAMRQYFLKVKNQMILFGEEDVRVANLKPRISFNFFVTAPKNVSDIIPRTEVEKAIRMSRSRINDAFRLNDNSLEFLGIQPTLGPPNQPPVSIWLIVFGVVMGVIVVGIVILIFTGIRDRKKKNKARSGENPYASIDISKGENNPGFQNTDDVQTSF

With “SARS-CoV S1 protein (from UniProt P59594 14-667) (domain or fragment)”, the LOD is 0.01 ng/mL; the fold wavelength shift on Au@R/Li against Au@R, at 100 ng/ml was 1.78 fold; the fold wavelength shift on Au@R/Li against Au@R, at 1000 ng/ml was found to be 4.51 fold; the fold wavelength shift on Au@R/Li against Au@R, at 10,000 ng/ml stood at 1.95 fold.
